The source of these data is patent US20090011988A1 (Genentech, published 2009).

For experiment [1], the target named is recombinant human IGFBP-3 (human, UniProt P17936 28-291). Put plainly: competitive phage ELISA. The protocol: (§1) E. coli cells (XL1-Blue, Stratagene) freshly transformed with phagemid vector were grown overnight in 5 mL 2YT medium (Sambrook et al., supra) in the presence of M13-VCS helper phage (Stratagene). Phage particles were harvested and resuspended in PBS buffer as described in Lowman, H. B., “Phage Display of Peptide Libraries on Protein Scaffolds,” in Cabilly, S. (ed.), Combinatorial Peptide Library Protocols (Humana Press Inc.: Totowa, N.J., 1998), pp. 249-264. Then phage concentrations were normalized to yield a maximal ELISA signal of 0.2-0.4 for each mutant (Lowman, in Cabilly, S. (ed.), supra). Threefold serial dilutions of soluble competitor were prepared on non-absorbent microtiter plates (Nunc, F, 96 wells) with binding buffer (0.5% TWEEN 20%/PBS) containing phage at the previously determined concentrations. […] After blocking, the plates containing immobilized target were washed with 0.05% TWEEN™/PBS buffer and subsequently incubated with 80 μl/well of the premixed phage-competitor solutions for 1 hour at room temperature. […] IC₅₀ values were determined by fitting the binding data to a generic saturation curve (Lowman, in Cabilly, S. (ed.), supra). At least two individual clones of each IGF-1 mutant were assayed. Numbers in Table XIII represent mean±standard deviation of individually assessed IC₅₀ values.
(In an ELISA, binding on a coated surface is turned into a signal by an enzyme label.)

Another experiment deals with T1, human IGFBP-1 (human, UniProt P08833 26-259).
T1 sequence (looked up): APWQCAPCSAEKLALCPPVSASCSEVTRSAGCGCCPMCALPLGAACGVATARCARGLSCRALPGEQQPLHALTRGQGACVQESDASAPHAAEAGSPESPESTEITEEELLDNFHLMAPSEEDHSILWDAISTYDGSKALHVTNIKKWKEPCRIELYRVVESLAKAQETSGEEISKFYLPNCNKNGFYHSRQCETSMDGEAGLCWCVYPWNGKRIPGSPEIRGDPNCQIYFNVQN
In words: competitive phage ELISA. The protocol: as §1

Bounds are passed on as bounds.

What is called IC50 is the point on the concentration scale where inhibition reaches its midpoint.

Chain of recombinant human IGFBP-3 (P17936 28-291 limits assumed): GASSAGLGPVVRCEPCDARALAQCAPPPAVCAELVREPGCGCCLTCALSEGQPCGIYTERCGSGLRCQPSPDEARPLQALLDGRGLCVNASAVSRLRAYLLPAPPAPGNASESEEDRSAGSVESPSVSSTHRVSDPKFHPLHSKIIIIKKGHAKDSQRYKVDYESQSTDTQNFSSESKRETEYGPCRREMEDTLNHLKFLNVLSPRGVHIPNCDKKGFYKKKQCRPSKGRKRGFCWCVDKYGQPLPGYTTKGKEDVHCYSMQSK

Take “IGF-1 P28A displayed on phage (from UniProt P69168 267-424) (ligand)”: in experiment [1], the IC50 turned out to be 1.41 nM and the relative IC50 (mut/G1S-A70V) was 1.9.
Consider “IGF-1 Q15A displayed on phage (from UniProt P69168 267-424) (ligand)”, for which the relative IC50 (mut/G1S-A70V) in experiment [1] stood at 1.7.
On to “IGF-1 D20A displayed on phage (from UniProt P69168 267-424) (ligand)”, for which, in experiment [1], the IC50 worked out at 1.11 nM and the relative IC50 (mut/G1S-A70V) amounted to 1.5.
In the case of “IGF-1 L14A displayed on phage (from UniProt P69168 267-424) (ligand)”, in the experiment with human IGFBP-1, the IC50 stood at 36.7 nM and the relative IC50 (mut/G1S-A70V) was 4.5.
As for “IGF-1 G22A displayed on phage (from UniProt P69168 267-424) (ligand)”, in experiment [1], the IC50 was 2.07 nM and the relative IC50 (mut/G1S-A70V) was 2.8.
In the case of “IGF-1 F25A displayed on phage (from UniProt P69168 267-424) (ligand)”, in experiment [1], the IC50 stood at 3.69 nM and the relative IC50 (mut/G1S-A70V) came out at 4.9. Moreover, in the experiment with human IGFBP-1, the IC50 came out at 181 nM and the relative IC50 (mut/G1S-A70V) is 22.1.
The like results for “IGF-1 L10A displayed on phage (from UniProt P69168 267-424) (ligand)” were, in that order, 3.55 nM, 4.7, 311 nM and 37.9.
The matching figures for “IGF-1 V17A displayed on phage (from UniProt P69168 267-424) (ligand)”: 3.67 nM, 4.9, 42.9 nM and 5.2.
Turning to “IGF-1 Y24A displayed on phage (from UniProt P69168 267-424) (ligand)”, in experiment [1], the IC50 stood at 2.53 nM and the relative IC50 (mut/G1S-A70V) is 3.4.
The like results for “IGF-1 F23A displayed on phage (from UniProt P69168 267-424) (ligand)” were, in that order, 2.18 nM and 2.9.
For “IGF-1 D12A displayed on phage (from UniProt P69168 267-424) (ligand)”, in the experiment with human IGFBP-1, the IC50 came out at 4.3 nM and the relative IC50 (mut/G1S-A70V) is 0.5.

B1: IGF-1 D45A displayed on phage (ligand, not shown: large carriers; small tags and cut ends)
chain: SPETLCGAELVDALQFVCGDRGFYFNKPTGYGSSSRRAPQTGIVAECCFRSCDLRRLEMYCAPLKPAKSV
notes: G1S-A70V background
Take B1: the IC50 stood at 0.69 nM in experiment [1] and 4.7 nM with human IGFBP-1.

B2: IGF-1 F49A displayed on phage (ligand, not shown: large carriers; small tags and cut ends)
chain: SPETLCGAELVDALQFVCGDRGFYFNKPTGYGSSSRRAPQTGIVDECCARSCDLRRLEMYCAPLKPAKSV
notes: G1S-A70V background; also called IGF-F49A phage
Turning to B2, the IC50 in experiment [1] amounted to 2.72 nM. In the experiment with human IGFBP-1, this molecule registered a relative IC50 (mut/G1S-A70V) greater than 100.

B3: IGF-1 E58A displayed on phage (ligand, not shown: large carriers; small tags and cut ends)
chain: SPETLCGAELVDALQFVCGDRGFYFNKPTGYGSSSRRAPQTGIVDECCFRSCDLRRLAMYCAPLKPAKSV
modifications: ends and bridges not checked; also: displayed on M13 phage, fused to g3p fragment (249-406) via amber-codon residue
notes: G1S-A70V background
As to B3, the IC50 came to 1.03 nM in experiment [1] and 11.9 nM in the experiment with human IGFBP-1.

B4: IGF-1 D53A displayed on phage (ligand, not shown: large carriers; small tags and cut ends)
chain: SPETLCGAELVDALQFVCGDRGFYFNKPTGYGSSSRRAPQTGIVDECCFRSCALRRLEMYCAPLKPAKSV
modifications: ends and bridges not checked; also: displayed on M13 phage, fused to g3p fragment (249-406) via amber-codon residue
notes: G1S-A70V background
B4: the IC50 in experiment [1] is 1.05 nM; with human IGFBP-1, 15.3 nM.

B5: IGF-1 E46A displayed on phage (ligand, not shown: large carriers; small tags and cut ends)
chain: SPETLCGAELVDALQFVCGDRGFYFNKPTGYGSSSRRAPQTGIVDACCFRSCDLRRLEMYCAPLKPAKSV
notes: G1S-A70V background
Take B5: the IC50 is 0.94 nM in experiment [1] and 7.9 nM with human IGFBP-1.
